In patent publication US20220017622A1 (Pfizer, published 2022):

T1: human B7-H4 extracellular domain (human, UniProt Q7Z7D3 29-258)
T1 construct: For SPR it says only human B7-H4 ECD; also called Hu B7-H4 ECD; huB7-H4 ECD
T1 sequence: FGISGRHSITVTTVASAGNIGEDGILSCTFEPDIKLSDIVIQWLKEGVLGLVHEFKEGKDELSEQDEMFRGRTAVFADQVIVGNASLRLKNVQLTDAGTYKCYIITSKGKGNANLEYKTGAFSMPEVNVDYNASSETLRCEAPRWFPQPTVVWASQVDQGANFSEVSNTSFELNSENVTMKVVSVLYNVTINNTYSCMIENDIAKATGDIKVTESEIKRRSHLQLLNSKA

T2: human B7-H4 on cells (human, UniProt Q7Z7D3 25-282)
T2 sequence (looked up): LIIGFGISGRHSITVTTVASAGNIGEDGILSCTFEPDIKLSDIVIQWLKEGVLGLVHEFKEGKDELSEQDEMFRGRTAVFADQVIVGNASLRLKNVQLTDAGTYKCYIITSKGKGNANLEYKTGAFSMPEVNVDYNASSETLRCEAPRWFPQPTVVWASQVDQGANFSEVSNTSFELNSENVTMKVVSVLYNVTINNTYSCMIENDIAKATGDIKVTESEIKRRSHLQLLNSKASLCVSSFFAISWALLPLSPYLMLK


What was measured:
[1] = target: T1, human B7-H4 extracellular domain; test: SPR Biacore 8K 25 C; mAb captured on anti-human Fc, huB7-H4 ECD analyte, 1:1 fit;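 also: antibodies tested as IgG1, running buffer HBS-EP+ at pH 7.4, rate constants and affinity from a 1:1 Langmuir model fit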
[2] = target: T2, human B7-H4 on cells; test: cell-based or functional assay

| Kd [1] | koff [1] | kon [1] | Binder | T cell mediated tumor cell killing EC50, HCC1954-Luc [2] |
| --- | --- | --- | --- | --- |
| 7.92 nM | 0.000508 s⁻¹ | 64100 M⁻¹ s⁻¹ | B7-H4 antibody 0057 (antibody, human IgG1, kappa, V domains shown, also called 34A3) VH: EVQLLESGGGLVQPGGSLRLSCAASGFTFSSYAMSWVRQAPGKGLEWVSAISGRGGSTYYTDSVKGRFTISRDNSRNTLYLQMNILRAEDTAVYYCARDLQWFGESTLFDYWGQGTLVTVSS VL: DIQLTQSPSTLSASVGDRVTITCRASQSISAWLAWFQQKPGKAPKLLIYKASSLESGVPSRFSGSGSGTEFTLTISSLQPDDFATYYCQQYNSYSRSFGQGTKLEIKR |  |
|  |  |  | B7-H4xCD3 bispecific antibody 0978 (bispecific antibody, IgG2) heavy 1: EVQLVESGGGLVQPGGSLRLSCAASGGSFSGYYWNWIRQPPGKGLEWIGEIDHQGSTKYNPSLKSRVTISVDTAKNSLYLQMNSLRAEDTAVYYCARELYNWNVDHWGQGTLVTVSSASTKGPSVFPLAPCSRSTSESTAALGCLVKDYFPEPVTVSWNSGALTSGVHTFPAVLQSSGLYSLSSVVTVPSSNFGTQTYTCNVDHKPSNTKVDKTVERKCEVECPECPAPPVAGPSVFLFPPKPKDTLMISRTPEVTCVVVAVSHEDPEVQFNWYVDGVEVHNAKTKPREEQFNSTFRVVSVLTVVHQDWLNGKEYKCKVSNKGLPSSIEKTISKTKGQPREPQVYTLPPSREEMTKNQVSLTCEVKGFYPSDIAVEWESNGQPENNYKTTPPMLDSDGSFFLYSKLTVDKSRWQQGNVFSCSVMHEALHNHYTQKSLSLSPG light 1: DIQMTQSPSSLSASVGDRVTITCRASQGIRNDLGWYQQKPGKAPKRLIYAASSLQSGVPSRFSGSGSGTDFTLTISSLQPEDFATYYCLQHSSYPRTFGGGTKVEIKRTVAAPSVFIFPPSDEQLKSGTASVVCLLNNFYPREAKVQWKVDNALQSGNSQESVTEQDSKDSTYSLSSTLTLSKADYEKHKVYACEVTHQGLSSPVTKSFNRGEC heavy 2: EVQLVESGGGLVQPGGSLRLSCAASGFTFSDYYMTWVRQAPGKGLEWVAFIRNQARGYTSDHNPSVKGRFTISRDNAKNSLYLQMNSLRAEDTAVYYCARDRPSYYVLDYWGQGTTVTVSSASTKGPSVFPLAPCSRSTSESTAALGCLVKDYFPEPVTVSWNSGALTSGVHTFPAVLQSSGLYSLSSVVTVPSSNFGTQTYTCNVDHKPSNTKVDKTVERKCRVRCPRCPAPPVAGPSVFLFPPKPKDTLMISRTPEVTCVVVAVSHEDPEVQFNWYVDGVEVHNAKTKPREEQFNSTFRVVSVLTVVHQDWLNGKEYKCKVSNKGLPSSIEKTISKTKGQPREPQVYTLPPSREEMTKNQVSLTCLVKGFYPSDIAVEWESNGQPENNYKTTPPMLDSDGSFFLYSRLTVDKSRWQQGNVFSCSVMHEALHNHYTQKSLSLSPGK light 2: DIQMTQSPSSLSASVGDRVTITCTSSQSLFNVRSQKNYLAWYQQKPGKAPKLLIYWASTRESGVPSRFSGSGSGTDFTLTISSLQPEDFATYYCKQSYDLFTFGGGTKVEIKRTVAAPSVFIFPPSDEQLKSGTASVVCLLNNFYPREAKVQWKVDNALQSGNSQESVTEQDSKDSTYSLSSTLTLSKADYEKHKVYACEVTHQGLSSPVTKSFNRGEC | 320 nM |
|  |  |  | B7-H4xCD3 bispecific antibody 0090 (bispecific antibody, human IgG1, kappa) heavy 1: QVQLQQWGAGLLKPSETLSLTCAVYGGSFSGYYWNWIRQPPGKGLEWIGEINHSGSTKYNPSLKSRVTISGDTSKNQFSLKLNSVTAADTAVYYCVRGLYNWNVDSWGQGTLVTVSSASTKGPSVFPLAPSSKSTSGGTAALGCLVKDYFPEPVTVSWNSGALTSGVHTFPAVLQSSGLYSLSSVVTVPSSSLGTQTYICNVNHKPSNTKVDKKVEPKSCDKTHTCPPCPAPEAAGAPSVFLFPPKPKDTLMISRTPEVTCVVVDVSHEDPEVKFNWYVDGVEVHNAKTKPREEQYNSTYRVVSVLTVLHQDWLNGKEYKCKVSNKALPAPIEKTISKAKGQPREPQVYTLPPSREEMTKNQVSLTCEVKGFYPSDIAVEWESNGQPENNYKTTPPVLDSDGSFFLYSKLTVDKSRWQQGNVFSCSVMHEALHNHYTQKSLSLSPG light 1: DIQMTQSPSSLSASVGDRVTITCRASQGIRNDLGWYQQKPGKAPKRLIYVASSLQSGVPSRFSGSGSGTEFTLTISSLQPEDFATYYCLQHNSYPYTFGQGTKLEIKRTVAAPSVFIFPPSDEQLKSGTASVVCLLNNFYPREAKVQWKVDNALQSGNSQESVTEQDSKDSTYSLSSTLTLSKADYEKHKVYACEVTHQGLSSPVTKSFNRGEC heavy 2: EVQLVESGGGLVQPGGSLRLSCAASGFTFSDYYMTWVRQAPGKGLEWVAFIRNQARGYTSDHNPSVKGRFTISRDNAKNSLYLQMNSLRAEDTAVYYCARDRPSYYVLDYWGQGTTVTVSSASTKGPSVFPLAPSSKSTSGGTAALGCLVKDYFPEPVTVSWNSGALTSGVHTFPAVLQSSGLYSLSSVVTVPSSSLGTQTYICNVNHKPSNTKVDKKVEPKSCDKTHTCPPCPAPEAAGAPSVFLFPPKPKDTLMISRTPEVTCVVVDVSHEDPEVKFNWYVDGVEVHNAKTKPREEQYNSTYRVVSVLTVLHQDWLNGKEYKCKVSNKALPAPIEKTISKAKGQPREPQVYTLPPSREEMTKNQVSLTCLVKGFYPSDIAVEWESNGQPENNYKTTPPVLDSDGSFFLYSRLTVDKSRWQQGNVFSCSVMHEALHNHYTQKSLSLSPG light 2: DIQMTQSPSSLSASVGDRVTITCTSSQSLFNVRSQKNYLAWYQQKPGKAPKLLIYWASTRESGVPSRFSGSGSGTDFTLTISSLQPEDFATYYCKQSYDLFTFGGGTKVEIKRTVAAPSVFIFPPSDEQLKSGTASVVCLLNNFYPREAKVQWKVDNALQSGNSQESVTEQDSKDSTYSLSSTLTLSKADYEKHKVYACEVTHQGLSSPVTKSFNRGEC | 68 nM |
|  |  |  | B7-H4xCD3 bispecific antibody 0982 (bispecific antibody, IgG2) heavy 1: EVQLVESGGGLVQPGGSLRLSCAVSGGSFSGYYWNWIRQPPGKGLEWIGEIDHQGSTKYNPSLKSRVTISVDTAKNSLYLQMNSLRAEDTAVYYCARELYNWNVDHWGQGTLVTVSSASTKGPSVFPLAPCSRSTSESTAALGCLVKDYFPEPVTVSWNSGALTSGVHTFPAVLQSSGLYSLSSVVTVPSSNFGTQTYTCNVDHKPSNTKVDKTVERKCEVECPECPAPPVAGPSVFLFPPKPKDTLMISRTPEVTCVVVAVSHEDPEVQFNWYVDGVEVHNAKTKPREEQFNSTFRVVSVLTVVHQDWLNGKEYKCKVSNKGLPSSIEKTISKTKGQPREPQVYTLPPSREEMTKNQVSLTCEVKGFYPSDIAVEWESNGQPENNYKTTPPMLDSDGSFFLYSKLTVDKSRWQQGNVFSCSVMHEALHNHYTQKSLSLSPG light 1: DIQMTQSPSSLSASVGDRVTITCRASQGIRNDLGWYQQKPGKAPKRLIYAASSLQSGVPSRFSGSGSGTDFTLTISSLQPEDFATYYCLQHSSYPRTFGGGTKVEIKRTVAAPSVFIFPPSDEQLKSGTASVVCLLNNFYPREAKVQWKVDNALQSGNSQESVTEQDSKDSTYSLSSTLTLSKADYEKHKVYACEVTHQGLSSPVTKSFNRGEC heavy 2: EVQLVESGGGLVQPGGSLRLSCAASGFTFSDYYMTWVRQAPGKGLEWVAFIRNQARGYTSDHNPSVKGRFTISRDNAKNSLYLQMNSLRAEDTAVYYCARDRPSYYVLDYWGQGTTVTVSSASTKGPSVFPLAPCSRSTSESTAALGCLVKDYFPEPVTVSWNSGALTSGVHTFPAVLQSSGLYSLSSVVTVPSSNFGTQTYTCNVDHKPSNTKVDKTVERKCRVRCPRCPAPPVAGPSVFLFPPKPKDTLMISRTPEVTCVVVAVSHEDPEVQFNWYVDGVEVHNAKTKPREEQFNSTFRVVSVLTVVHQDWLNGKEYKCKVSNKGLPSSIEKTISKTKGQPREPQVYTLPPSREEMTKNQVSLTCLVKGFYPSDIAVEWESNGQPENNYKTTPPMLDSDGSFFLYSRLTVDKSRWQQGNVFSCSVMHEALHNHYTQKSLSLSPGK light 2: DIQMTQSPSSLSASVGDRVTITCTSSQSLFNVRSQKNYLAWYQQKPGKAPKLLIYWASTRESGVPSRFSGSGSGTDFTLTISSLQPEDFATYYCKQSYDLFTFGGGTKVEIKRTVAAPSVFIFPPSDEQLKSGTASVVCLLNNFYPREAKVQWKVDNALQSGNSQESVTEQDSKDSTYSLSSTLTLSKADYEKHKVYACEVTHQGLSSPVTKSFNRGEC | 2650 nM |
|  |  |  | B7-H4xCD3 bispecific antibody 0980 (bispecific antibody, IgG2) heavy 1: EVQLVESGGGLVQPGGSLRLSCAASGGSFSGYYWNWIRQPPGKGLEWIGEIDHQGSTKYNPSLKSRVTISVDTAKNSLYLQMNSLRAEDTAVYYCARGLYNWNVDHWGQGTLVTVSSASTKGPSVFPLAPCSRSTSESTAALGCLVKDYFPEPVTVSWNSGALTSGVHTFPAVLQSSGLYSLSSVVTVPSSNFGTQTYTCNVDHKPSNTKVDKTVERKCEVECPECPAPPVAGPSVFLFPPKPKDTLMISRTPEVTCVVVAVSHEDPEVQFNWYVDGVEVHNAKTKPREEQFNSTFRVVSVLTVVHQDWLNGKEYKCKVSNKGLPSSIEKTISKTKGQPREPQVYTLPPSREEMTKNQVSLTCEVKGFYPSDIAVEWESNGQPENNYKTTPPMLDSDGSFFLYSKLTVDKSRWQQGNVFSCSVMHEALHNHYTQKSLSLSPG light 1: DIQMTQSPSSLSASVGDRVTITCRASQGIRNDLGWYQQKPGKAPKRLIYAASSLQSGVPSRFSGSGSGTDFTLTISSLQPEDFATYYCLQHSSYPRTFGGGTKVEIKRTVAAPSVFIFPPSDEQLKSGTASVVCLLNNFYPREAKVQWKVDNALQSGNSQESVTEQDSKDSTYSLSSTLTLSKADYEKHKVYACEVTHQGLSSPVTKSFNRGEC heavy 2: EVQLVESGGGLVQPGGSLRLSCAASGFTFSDYYMTWVRQAPGKGLEWVAFIRNQARGYTSDHNPSVKGRFTISRDNAKNSLYLQMNSLRAEDTAVYYCARDRPSYYVLDYWGQGTTVTVSSASTKGPSVFPLAPCSRSTSESTAALGCLVKDYFPEPVTVSWNSGALTSGVHTFPAVLQSSGLYSLSSVVTVPSSNFGTQTYTCNVDHKPSNTKVDKTVERKCRVRCPRCPAPPVAGPSVFLFPPKPKDTLMISRTPEVTCVVVAVSHEDPEVQFNWYVDGVEVHNAKTKPREEQFNSTFRVVSVLTVVHQDWLNGKEYKCKVSNKGLPSSIEKTISKTKGQPREPQVYTLPPSREEMTKNQVSLTCLVKGFYPSDIAVEWESNGQPENNYKTTPPMLDSDGSFFLYSRLTVDKSRWQQGNVFSCSVMHEALHNHYTQKSLSLSPGK light 2: DIQMTQSPSSLSASVGDRVTITCTSSQSLFNVRSQKNYLAWYQQKPGKAPKLLIYWASTRESGVPSRFSGSGSGTDFTLTISSLQPEDFATYYCKQSYDLFTFGGGTKVEIKRTVAAPSVFIFPPSDEQLKSGTASVVCLLNNFYPREAKVQWKVDNALQSGNSQESVTEQDSKDSTYSLSSTLTLSKADYEKHKVYACEVTHQGLSSPVTKSFNRGEC | 390 nM |
